{"source": "paper doi:10.1101/2020.04.07.028951", "about": "(bioRxiv, 2020)", "molecules": {"B1": {"name": "Clostridium perfringens CBS-PPase (cpPPase) (enzyme)", "chain": "MKDVIYITGHKNPDSDSICAALAYAEFKNKTQDTPAIPVRLGNVSQETQYILDYFGVEAPQFLETVKLKVEDLEMDKIAPLAPEVSLKMAWNIMRDKNLKSIPVADGNNHLLGMLSTSNITATYMDIWDSNILAKSATSLDNILDTLSAEAQNINEERKVFPGKVVVAAMQAESLKEFISEGDIAIAGDRAEIQAELIELKVSLLIVTGGHTPSKEIIELAKKNNITVITTPHDSFTASRLIVQSLPVDYVMTKDNLVAVSTDDLVEDVKVTMSETRYSNYPVIDENNKVVGSIARFHLISTHKKKVIQVDHNERGQSVHGLEDAEVLEIIDHHRVADIQTGNPIYFRNEPLGSTSTIVAKRFFENGIRPSREAAGLLCGAIISDTLLFKSPTCTPQDVKMCRKLAEIAGIVPETFAKEMFKAGTSLKGKSIEEIFNADFKPFTIEGVKVGVAQVNTMDIEGFMPLKGEMLDYMNQKAESMGLEMIMLLLTDIINEGSQILVAGRSPEIAEEAFKVKLEDSTTFLPGVLSRKKQVVPPLTQIITTRVSK"}}, "key": {"[1]": {"target": "Eggerthella lenta CBS-PPase (elPPase) (Eggerthella lenta)", "assay": "AUC"}, "[2]": {"target": "dhCDC, separate regulatory part of dhPPase (residues 63-306) (Desulfitobacterium hafniense)", "assay": "AUC"}, "[3]": {"target": "dhCDC, separate regulatory part of dhPPase (residues 63-306) (Desulfitobacterium hafniense)", "assay": "AUC", "remark": "listed apart in the source"}, "[4]": {"target": "dhCDC, separate regulatory part of dhPPase (residues 63-306) (Desulfitobacterium hafniense)", "assay": "cross-linking"}, "[5]": {"target": "Ethanoligenens harbinense CBS-PPase (ehPPase) (Ethanoligenens harbinense)", "assay": "AUC"}, "[6]": {"target": "Ethanoligenens harbinense CBS-PPase (ehPPase) (Ethanoligenens harbinense)", "assay": "cross-linking"}, "[7]": {"target": "Clostridium novyi CBS-PPase (cnPPase) (Clostridium novyi)", "assay": "AUC"}, "[8]": {"target": "Clostridium novyi CBS-PPase (cnPPase) (Clostridium novyi)", "assay": "cross-linking"}, "[9]": {"target": "dhPPaseΔCDC, separate catalytic part of D. hafniense CBS-PPase (Desulfitobacterium hafniense)", "assay": "AUC"}, "[10]": {"target": "dhPPaseΔCDC, separate catalytic part of D. hafniense CBS-PPase (Desulfitobacterium hafniense)", "assay": "cross-linking"}, "[11]": {"target": "dhPPaseΔCDC, separate catalytic part of D. hafniense CBS-PPase (Desulfitobacterium hafniense)", "assay": "enzyme activity after dilution"}, "[12]": {"target": "Desulfitobacterium hafniense CBS-PPase (dhPPase), full-size (Desulfitobacterium hafniense)", "assay": "AUC"}, "[13]": {"target": "Desulfitobacterium hafniense CBS-PPase (dhPPase), full-size (Desulfitobacterium hafniense)", "assay": "cross-linking"}, "[14]": {"target": "Desulfitobacterium hafniense CBS-PPase (dhPPase), full-size (Desulfitobacterium hafniense)", "assay": "enzyme activity after dilution"}, "[15]": {"target": "the molecule itself", "assay": "cross-linking"}}}
{"molecule": "Eggerthella lenta CBS-PPase (elPPase) (enzyme)", "values": [{"measurement": "stoichiometry N", "setting": "[1]", "value": 4}]}
{"molecule": "dhCDC, separate regulatory part of dhPPase (residues 63-306) (domain or fragment)", "values": [{"measurement": "stoichiometry N", "setting": "[2]", "value": 2}, {"measurement": "stoichiometry N", "setting": "[3]", "value": 2}, {"measurement": "stoichiometry N", "setting": "[4]", "value": 2}]}
{"molecule": "Ethanoligenens harbinense CBS-PPase (ehPPase) (enzyme)", "values": [{"measurement": "stoichiometry N", "setting": "[5]", "value": 4}, {"measurement": "stoichiometry N", "setting": "[6]", "value": 2}]}
{"molecule": "Clostridium novyi CBS-PPase (cnPPase) (enzyme)", "values": [{"measurement": "stoichiometry N", "setting": "[7]", "value": 4}, {"measurement": "stoichiometry N", "setting": "[8]", "value": 4}]}
{"molecule": "dhPPaseΔCDC, separate catalytic part of D. hafniense CBS-PPase (enzyme)", "values": [{"measurement": "stoichiometry N", "setting": "[9]", "value": 2}, {"measurement": "stoichiometry N", "setting": "[10]", "value": 2}, {"measurement": "koff", "setting": "[11]", "value": 0.04, "unit": "s⁻¹"}, {"measurement": "percent dimeric at 5.8 µM", "setting": "[11]", "value": 37, "unit": "%"}]}
{"molecule": "Desulfitobacterium hafniense CBS-PPase (dhPPase), full-size (enzyme)", "values": [{"measurement": "stoichiometry N", "setting": "[12]", "value": 4}, {"measurement": "stoichiometry N", "setting": "[13]", "value": 4}, {"measurement": "percent dissociated at 3 µM", "setting": "[14]", "value": 10, "unit": "%"}, {"measurement": "percent tetrameric at 1 µM", "setting": "[14]", "value": 79, "unit": "%"}]}
{"molecule": "B1", "values": [{"measurement": "stoichiometry N", "setting": "[15]", "value": 4}]}
